Four molecules from US20250163139A1 (Hoffmann-La Roche, published 2025) can be followed below.

For orientation: Kd means the equilibrium constant for the complex coming apart. As a reminder, the IC50 is the concentration at which inhibition is half-maximal.

The target in assay [1] is T1, human IL6 (human, UniProt P05231 30-212).
T1 construct: also called Interleukin-6
The assay can be described thus: SPR, Fab captured on anti-Fab chip, human IL6 as analyte. The method, then: (§1) A Human Fab Binder (28958325, Cytiva) was diluted at a final concentration of 10 μg/ml in 10 mM sodium acetate buffer, pH 5.0 and immobilized on a CM5 sensor chip using standard amine coupling chemistry. […] The reference channel was treated accordingly.
(§2) Prior to the protein measurements five startup cycles were performed for conditioning purposes. On each cycle, HBS-EP+ buffer was flowed for 120 s followed by the regeneration of the derivatized chip surface by applying 10 mM Glycine buffer pH2.0 for 60 s. Fab fragment at a concentration of 75 nM was captured on this surface for 60 s at a flow rate of 10 μl/min in HBS-EP+ buffer. No Fab fragment was applied to the reference channel. […] Regeneration of the derivatized chip surface was achieved as described above. Data were evaluated with 8K Evaluation software (Biacore Insight Evaluation 3.0). Double referencing was used and the 1:1 Binding model was used to fit the raw data.

Assay [2] addresses T1, human IL6. Nature of the assay: cell-based or functional assay.
In assay [3] the target is human VEGF-A (isoform not given) (human, UniProt P15692-4 27-191, limits assumed). Nature of the assay: cell-based or functional assay.
Assay [4] deals with T2, cynomolgus monkey IL6 (cynomolgus monkey, UniProt P79341 28-212, limits assumed).
T2 construct: also called cynomolgus IL6; cyIL-6
T2 sequence (looked up): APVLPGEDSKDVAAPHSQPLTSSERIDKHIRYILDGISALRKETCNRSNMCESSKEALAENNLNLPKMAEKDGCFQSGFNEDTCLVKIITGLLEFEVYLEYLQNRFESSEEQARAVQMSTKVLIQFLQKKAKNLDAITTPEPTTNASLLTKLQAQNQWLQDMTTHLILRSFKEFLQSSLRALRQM
Nature of the assay: SPR, Fab captured on anti-Fab chip, cynomolgus IL6 as analyte. As to the method:
as §1, §2
(In SPR one partner is held on a chip, and binding of the other changes the refractive index at the surface.)

Another assay concerns the target T3, human VEGF121 (human, UniProt P15692 181-395).
T3 construct: The limits of the proteins used (Humanzyme HZ-1206); also called human VEGFA121
T3 sequence: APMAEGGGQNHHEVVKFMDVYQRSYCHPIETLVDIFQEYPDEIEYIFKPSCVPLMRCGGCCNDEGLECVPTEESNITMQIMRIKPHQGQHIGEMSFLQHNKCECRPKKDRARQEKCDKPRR
Nature of the assay: competition ELISA: Fab titrated against 10 pM VEGF121, free VEGF detected on plate-coated VEGF-R1. The method, then:
(§3) The contact time between the Fab-Antigen mixture and the receptor-coated plate was restricted to 10 min at RT in order to minimize interference with the binding equilibria. […] The latter is detected exploiting the chromogenic conversion of the HRP substrate 3,3′,5,5′-tetramethylbenzidine TMB to 3,3′,5,5′-tetramethylbenzidine […], which can be followed by a change in absorbance at 450 nm. TMB was prewarmed to room temperature and incubated on the plate for 5 min before being quenched by the addition of IN H₂SO₄.
On the technique in general: An ELISA detects its analyte on a solid surface through an enzyme-linked reagent.

In the next assay the target is human VEGF165 (human, UniProt P15692-4 27-191). The assay can be described thus: competition ELISA: Fab titrated against 10 pM VEGF165, free VEGF detected on plate-coated VEGF-R1. As to the method:
as §3

Assay [5] addresses T1, human IL6. Nature of the assay: SPR in analogy to Example 3, Fab captured on anti-Fab chip. The method, then: as §1, §2
Assay [6] deals with T2, cynomolgus monkey IL6. The description is as above. As to the method:
as §1, §2

B1: VH6L-BM (Fab, V domains shown)
VH: YYQLVESGGGLVQPGGSLRLSCAADGFLFSGYAMSWIRQAPGKGLEWIGQISGSGGSTVYNYNVLGRFTISRDNSKNTLYLQMNSLRAEDTAVYYCARDTGYFDHWGQGTLVTVSS
VL: NIQKTQSPSSLSASVGDRVTITCRALWHISSYLAWYQQKPGKAPKLLIYAASHLHYGVPSRFSGSGSGTDFTLTISSLQPEDFATYYCQQYSGLPYTFGQGTKVEIK
notes: Prior art control, prepared by recombinant expression; also called bispecific antibody VH6L of WO2012/163520
Molecule B1 displayed a Kd with human IL6 [1] of 3.5 nM.

B2: 6HVL_4 (Fab, V domains shown)
VH: YPQLVESGGGLVQPGGSLRLSCEASVLFKHQDMSWVRQAPGKGLEWVGSIDPRGDHKYYNTKFIDRFTISRDNSKNTLYLQMNSLRAEDTAVYYCARDLDFMDEWGQGTLVTVSS
VL: AIYMHQEPSSLSASVGDRVTITCQASYWLNSELAWYQQKPGKAPKLLIYDGDDRYPEVPSRFSGSGSHEDYTLTISSLQPEDFATYYCQQYRYTPYTFGQGTKLEIKR
notes: Bispecific Fab; also called VEGF/IL6-bispecific antibody 6HVL_4
On to B2, for which the “IC50, inhibition of IL-6/IL-6R-induced ICAM-1 surface expression on HRMECs (flow cytometry)” value in the assay with human IL6 [2] was 1.52 nM. Further, in assay [3], the “IC50, inhibition of VEGF-A-induced HUVEC proliferation (alamarBlue)” value turned out to be 2.06 nM. For the same molecule, the values for the Kd in the assay with human IL6 [1] and with cynomolgus monkey IL6 [4] were 0.069 nM and 1.48 nM, respectively. The values for the IC50 with human VEGF121 and with human VEGF165 were 0.458 nM and 0.111 nM, respectively.

B3: 6HdL2.05 (Fab, V domains shown)
VH: YPQLVESGGGLVQPGGSLRLSCEASVLFKHQDMSWVRQAPGKGLEWVGSISPSGGSTYYNDNVLGRFTISRDNSKNTLYLQMNSLRAEDTAVYYCARDLDFMDEWGQGTLVTVSS
VL: DIQMTQSPSSLSASVGDRVTITCRASQGISNYLAWYQQKPGKAPKLLIYDGDDRYPEVPSRFSGSGSGTDFTLTISSLQPEDFATYYCQQYYSTPYTFGQGTKLEIKR
notes: also called monospecific anti-IL6 antibody 6HdL2.05
Consider B3, for which the dissociation constant (Kd) with human IL6 [5] is 0.022 nM; with cynomolgus monkey IL6 [6], 1.3 nM.

B4: 6HVL_4_YHE (Fab, V domains shown)
VH: YPQLVESGGGLVQPGGSLRLSCEASVLFKHQDMSWVRQAPGKGLEWVGSIDPRGDHKYYNTKFIDRFTISRDNSKNTLYLQMNSLRAEDTAVYYCARDLDFMDEWGQGTLVTVSS
VL: AIQMTQSPSSLSASVGDRVTITCQASYWLNSELAWYQQKPGKAPKLLIYDGDDRYPEVPSRFSGSGSHEDYTLTISSLQPEDFATYYCQQYRYTPYTFGQGTKLEIKR
With B4, the Kd was found to be 0.065 nM in the assay with human IL6 [1] and 1.39 nM in the assay with cynomolgus monkey IL6 [4]. For the same molecule, the IC50 with human VEGF121 amounted to 0.528 nM; with human VEGF165 it was 0.135 nM.
